Blank lines part the entries; values can stand above or below the binder they belong to.
How the values were obtained:
[1] = biological target: T1, human B7H6 on HCT-15 cells (human, UniProt Q68D85 25-454); test: cell-based or functional assay
T1 sequence (looked up): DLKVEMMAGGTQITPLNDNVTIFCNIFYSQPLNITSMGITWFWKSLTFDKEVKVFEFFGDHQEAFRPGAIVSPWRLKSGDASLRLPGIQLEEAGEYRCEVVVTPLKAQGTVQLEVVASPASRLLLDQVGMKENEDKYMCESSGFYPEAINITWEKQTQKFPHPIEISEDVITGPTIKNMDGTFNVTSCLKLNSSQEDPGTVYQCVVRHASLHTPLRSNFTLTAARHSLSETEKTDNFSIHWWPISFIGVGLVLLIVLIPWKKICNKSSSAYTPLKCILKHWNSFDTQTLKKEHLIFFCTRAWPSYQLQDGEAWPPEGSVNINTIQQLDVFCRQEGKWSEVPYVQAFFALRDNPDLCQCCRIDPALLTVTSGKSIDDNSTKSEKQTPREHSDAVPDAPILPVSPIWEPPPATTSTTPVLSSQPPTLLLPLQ

[2] = biological target: T1, human B7H6 on HCT-15 cells; test: flow cytometry on HCT-15 cells, PE anti-human secondary antibody
Protocol: Binding of B7H6/CD3 binding proteins to HCT-15, a human (colo-rectal cancer) CRC cell line was tested by flow cytometry. In a previous experiment, it has been confirmed that HCT-15 cells expresses B7-H6 on the RNA levels as well as the protein level with approximately 8,000 B7-H6 receptors on the cell surface (data not shown). B7H6/CD3 binding proteins were produced, as described in Example 2. HCT-15 cells were stained with increasing concentrations of two-step purified B7H6/CD3 binding proteins in FACS buffer (PBS/0.5% BSA/0.05% sodium azide). Bound molecules were detected with PE-conjugated anti-human secondary antibody (Sigma-Aldrich, #P8047).

[3] = biological target: T2, Fc-His-tagged human B7H6 ECD (human); test: ELISA, plate coated with Fc-His-tagged human B7H6 ECD, anti-human IgG F(ab')2-peroxidase, TMB
T2 construct: also called huB7H6-ECD-Fc-His; recombinant human B7H6 ECD
Protocol: (§1) To assess binding of B7H6/CD3 binding proteins to recombinant human Fc-His-tagged B7H6 ECD and human Fc-His-tagged Ala-mutated B7H6 extracellular proteins as described in Example 3, MediSorp™ plates (Nunc, 467320) were coated with […] recombinant proteins overnight at 4° C. The next day, plates were blocked with 0.5% bovine serum albumin (BSA) in phosphate buffered saline (PBS) for 1 hour at room temperature (RT). Subsequently plates were washed with […] containing 0.05% TWEEN®20 viscous liquid and B7H6/CD3 binding proteins were incubated at concentrations ranging from 0.00001 to 10 μg/ml. After an additional washing step, bound B7H6/CD3 binding proteins were detected by a peroxidase conjugated goat anti-human IgG F(ab′)₂-specific secondary antibody (Jackson Immunoresearch) and visualized by TMB substrate solution (Bender Med Systems).

[4] = biological target: T3, Fc-His-tagged human Ala-mutated B7H6 ECD (human); test: ELISA, plate coated with Fc-His-tagged human Ala-mutated B7H6 ECD, anti-human IgG F(ab')2-peroxidase, TMB
T3 construct: also called huB7H6-Ala-ECD
Protocol: as §1

EC50 (read off the curve) [2]: ~0.9 nM
EC50 (read off the curve) [3]: ~0.05 µg/mL
B1: B7H6#10/CD3#1 (bispecific antibody, human IgG1, kappa, lambda, L234A L235A)
chain 1: DIQMTQSPSSVSASVGDRVTITCRASQGISSWLAWYQQKPGKAPKLLIYVASSLQRGVPSRFSGSGSGTDFTLTISNLQPEDFATYYCQQANSFPRTFGQGTKVEIKRTVAAPSVFIFPPSDEQLKSGTASVVCLLNNFYPREAKVQWKVDNALQSGNSQESVTEQDSKDSTYSLSSTLTLSKADYEKHKVYACEVTHQGLSSPVTKSFNRGECGGGGSEGKSSGSGSESKSTEGKSSGSGSESKSTGGGGSQVHLQESGPGLVKPSETLSLTCTVSGDSISSYYWSWIRQPAGKGLEWIGHIYTSEKNNYNPSLKSRVIMSVDTSKNQFSLNLSSVTAADTAVYYCARVGNWGSHDAWGQGTLVTVSSASTKGPSVFPLAPSSKSTSGGTAALGCLVKDYFPEPVTVSWNSGALTSGVHTFPAVLQSSGLYSLSSVVTVPSSSLGTQTYICNVNHKPSNTKVDKRVEPKSCDKTHTCPPCPAPEAAGGPSVFLFPPKPKDTLMISRTPEVTCVVVDVSHEDPEVKFNWYVDGVEVHNAKTKPREEQYNSTYRVVSVLTVLHQDWLNGKEYKCKVSNKALPAPIEKTISKAKGQPREPQVYTLPPSREEMTKNQVSLWCLVKGFYPSDIAVEWESNGQPENNYKTTPPVLDSDGSFFLYSKLTVDKSRWQQGNVFSCSVMHEALHNHYTQKSLSLSPG
chain 2: EAVVTQEPSLTVSPGGTVTLTCRSSTGAVTTSNYANWVQEKPGQLPRGLIGGTNKRAPWVPARFSGSLLGGKAALTLSGAQPEDEAEYFCALWYSNLWVFGGGTKLTVLGQPKAAPSVTLFPPSSEELQANKATLVCLISDFYPGAVKVAWKADGSPVNTGVETTTPSKQSNNKYAASSYLSLTPEQWKSHRSYSCQVTHEGSTVEKTVAPAECSGGGGSEGKSSGSGSESKSTEGKSSGSGSESKSTGGGGSEVQLVESGGGLVQPGGSLKLSCAASGFTFNTYAMNWVRQAPGKGLEWVARIRSKYNNYATYYADSVKDRFTISRDDSKNTAYLQMNNLKTEDTAVYYCVRHGNFGNSYVSWFAYWGQGTLVTVSAASTKGPSVFPLAPSSKSTSGGTAALGCLVKDYFPEPVTVSWNSGALTSGVHTFPAVLQSSGLYSLSSVVTVPSSSLGTQTYICNVNHKPSNTKVDKRVEPKSCDKTHTCPPCPAPEAAGGPSVFLFPPKPKDTLMISRTPEVTCVVVDVSHEDPEVKFNWYVDGVEVHNAKTKPREEQYNSTYRVVSVLTVLHQDWLNGKEYKCKVSNKALPAPIEKTISKAKGQPREPQVYTLPPSREEMTKNQVSLSCAVKGFYPSDIAVEWESNGQPENNYKTTPPVLDSDGSFFLVSKLTVDKSRWQQGNVFSCSVMHEALHNRFTQKSLSLSPG
notes: scFab-Fc heterodimer, one B7H6 chain and one CD3 chain
EC50 [nM], 72 hour cytotoxicity assay, non-stimulated T-cells (Donor #1) as effector cells, HCT-15 cells as target cells [1]: 0.53 nM

EC50 (read off the curve) [2]: ~1 nM
EC50 (read off the curve) [3]: ~0.05 µg/mL
B2: B7H6#7/CD3#1 (bispecific antibody, human IgG1, kappa, lambda, L234A L235A)
chain 1: DIQMTQSPSSVSASVGDRVTITCRASQGISSWLAWYQQKPGKAPNLLIYAASSLQSGVPSRFSGSGSGTDFTLTISSLQPEDFATYYCQQANSFPRTFGQGTKVEIKRTVAAPSVFIFPPSDEQLKSGTASVVCLLNNFYPREAKVQWKVDNALQSGNSQESVTEQDSKDSTYSLSSTLTLSKADYEKHKVYACEVTHQGLSSPVTKSFNRGECGGGGSEGKSSGSGSESKSTEGKSSGSGSESKSTGGGGSQVQLQESGPGLVKPSETLSLTYTVSGGSISYNYWSWIRQPPEKGLEWIGHIYYSGSTNYNPSLKSRVTISVDTSKNQFSLKLNSVTAADTAVYYCARVGTWGSFDDWGQGTLVTVSSASTKGPSVFPLAPSSKSTSGGTAALGCLVKDYFPEPVTVSWNSGALTSGVHTFPAVLQSSGLYSLSSVVTVPSSSLGTQTYICNVNHKPSNTKVDKRVEPKSCDKTHTCPPCPAPEAAGGPSVFLFPPKPKDTLMISRTPEVTCVVVDVSHEDPEVKFNWYVDGVEVHNAKTKPREEQYNSTYRVVSVLTVLHQDWLNGKEYKCKVSNKALPAPIEKTISKAKGQPREPQVYTLPPSREEMTKNQVSLWCLVKGFYPSDIAVEWESNGQPENNYKTTPPVLDSDGSFFLYSKLTVDKSRWQQGNVFSCSVMHEALHNHYTQKSLSLSPG
chain 2: B1 chain 2
notes: as for B1
EC50 [nM], 72 hour cytotoxicity assay, non-stimulated T-cells (Donor #1) as effector cells, HCT-15 cells as target cells [1]: 0.36 nM

binding result [4]: no binding (tested: 10 µg/ml)
EC50 (read off the curve) [3]: ~0.05 µg/mL
B3: B7H6#6/CD3#1 (bispecific antibody, human IgG1, kappa, lambda, L234A L235A)
chain 1: DIVMTQSPDSLPVSAGDRVTITCKASQSVSNDVVWYQQKPGQSPKLLMYSTSNRYIGVPDRFTGSGYGTDFTFTISTVQAEDLAVYFCQQDYSSPYTFGGGTKLEIKRTVAAPSVFIFPPSDEQLKSGTASVVCLLNNFYPREAKVQWKVDNALQSGNSQESVTEQDSKDSTYSLSSTLTLSKADYEKHKVYACEVTHQGLSSPVTKSFNRGECGGGGSEGKSSGSGSESKSTEGKSSGSGSESKSTGGGGSEVQLQQSGPELLKPGASVKISCKTSGYTFTDYTMHWVKQSHGKSLEWIGGINPNYDNTGYSEKFKDKATLTVDKSSSTAYMELRSLTSEDSAVYYCTRSGSRRSFYFDYWGQGTTLTVSSASTKGPSVFPLAPSSKSTSGGTAALGCLVKDYFPEPVTVSWNSGALTSGVHTFPAVLQSSGLYSLSSVVTVPSSSLGTQTYICNVNHKPSNTKVDKRVEPKSCDKTHTCPPCPAPEAAGGPSVFLFPPKPKDTLMISRTPEVTCVVVDVSHEDPEVKFNWYVDGVEVHNAKTKPREEQYNSTYRVVSVLTVLHQDWLNGKEYKCKVSNKALPAPIEKTISKAKGQPREPQVYTLPPSREEMTKNQVSLWCLVKGFYPSDIAVEWESNGQPENNYKTTPPVLDSDGSFFLYSKLTVDKSRWQQGNVFSCSVMHEALHNHYTQKSLSLSPG
chain 2: B1 chain 2
notes: as for B1
EC50 [nM], 72 hour cytotoxicity assay, non-stimulated T-cells (Donor #1) as effector cells, HCT-15 cells as target cells [1]: 0.46 nM

EC50 (read off the curve) [4]: ~0.2 µg/mL
EC50 (read off the curve) [3]: ~0.05 µg/mL
B4: B7H6#4/CD3#1 (bispecific antibody, human IgG1, kappa, lambda, L234A L235A)
chain 1: DIVMTQSQKFMSTSVGDRVSVTCKASQNVGKYVAWYQQKPGQSPKALIYSASNRYDGVPDRFTGSGSGTDFTLTITNVQSEDLTEYFCQQYISYPLTFGAGTKLELKRTVAAPSVFIFPPSDEQLKSGTASVVCLLNNFYPREAKVQWKVDNALQSGNSQESVTEQDSKDSTYSLSSTLTLSKADYEKHKVYACEVTHQGLSSPVTKSFNRGECGGGGSEGKSSGSGSESKSTEGKSSGSGSESKSTGGGGSQVQLQQPGSVLVRPGASVRLSCKASGYTFTNYWMNWMKQRPGQGLEWIGGIYLNGDSTDYNEKFKGKATLTVDTSSSTTYMDLSSLTYEDSAVYYCTTRGDYFGDFWGQGTTLTVSSASTKGPSVFPLAPSSKSTSGGTAALGCLVKDYFPEPVTVSWNSGALTSGVHTFPAVLQSSGLYSLSSVVTVPSSSLGTQTYICNVNHKPSNTKVDKRVEPKSCDKTHTCPPCPAPEAAGGPSVFLFPPKPKDTLMISRTPEVTCVVVDVSHEDPEVKFNWYVDGVEVHNAKTKPREEQYNSTYRVVSVLTVLHQDWLNGKEYKCKVSNKALPAPIEKTISKAKGQPREPQVYTLPPSREEMTKNQVSLWCLVKGFYPSDIAVEWESNGQPENNYKTTPPVLDSDGSFFLYSKLTVDKSRWQQGNVFSCSVMHEALHNHYTQKSLSLSPG
chain 2: B1 chain 2
notes: as for B1
EC50 [nM], 72 hour cytotoxicity assay, non-stimulated T-cells (Donor #1) as effector cells, HCT-15 cells as target cells [1]: 0.23 nM
